Reference: US5434073

Legend:
[1] = target: human thrombin (Sigma) (human) (UniProt P00734)
[2] = target: plasminogen (Sigma P-7397)

With hirudin-IEGR-hirudin fusion protein the specific activity in anti-thrombin units (inhibition of thrombin catalysed hydrolysis of CHROMOZYM TH) [1] was 588 U/mg.
With recombinant hirudin sample the specific activity in anti-thrombin units (inhibition of thrombin catalysed hydrolysis of CHROMOZYM TH) [1] was 6600 U/mg.
“thrombin cleavable streptokinase-streptokinase fusion protein” showed a streptokinase activity by the S2251 chromogenic assay [2] of 18400 u/ml.
